Measurements: patent US20230293571A1, “POLYNUCLEOTIDE FOR CANCER TREATMENT, ENCODING 5'-NUCLEOTIDASE MODIFIED PROTEIN” (priority 2020, published 2023)

Target: recombinant CD47 protein (Homo sapiens, UniProt Q08722)
Assay: SPR on CM5 chip conjugated with CD47
Assay type: binding
Conditions: CD47 250 RU
Procedure: Specifically, the recombinant CD47 protein was conjugated to the surface of the CM5 chip by a target SPR reaction of 250 RU through an EDC-NHS reaction to be used, and for HBS-P, the sensogram obtained through a process of association for 3 minutes and dissociation for 10 minutes at a flow rate of 30 μL/minutes was analyzed with the BiaEvaluation software using a 1:1 binding model and global fitting.

recombinant CD47 protein, sequence (Q08722 19-323): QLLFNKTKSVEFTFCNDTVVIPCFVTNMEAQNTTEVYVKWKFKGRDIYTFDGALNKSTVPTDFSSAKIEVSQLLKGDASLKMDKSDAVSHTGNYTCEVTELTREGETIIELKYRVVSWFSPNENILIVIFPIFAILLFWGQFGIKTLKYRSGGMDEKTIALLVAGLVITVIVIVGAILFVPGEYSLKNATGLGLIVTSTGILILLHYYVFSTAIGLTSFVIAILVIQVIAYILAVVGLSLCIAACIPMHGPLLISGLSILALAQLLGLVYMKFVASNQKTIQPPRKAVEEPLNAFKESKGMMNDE

Molecule | Kd [nM] | kd [s⁻¹]
Sirpα: pure Sirpα (SEQ ID NO: 25), water-soluble domain of the original CD47 ligand | 290 | 
SV4-DSPE (conjugate) MEEELQIIQPDLSVSVAAGESAILHCTITSLFPVGPIQWFRGAGPARVLIYNQRQGPFPRVTTVSETTKRENMDFSISISNITPADAGTYYCIKFRKGSPDTEFLSGAGTELSVRAKPS |  | 0.000256
